Assay results published in US10379127B2, “Marker of cell death” (priority 2013, dated 2019).

Experiments:
Jurkat cells [1] = test: Relative proportions of live, apoptotic and dead Jurkat cells challenged with staurosporine (Sytox Red and MAb2C4:AF568 staining); type: cell-based; conditions: 2×10^−7M, 5×10^−7M and 10×10^−7M for 40 hours, FIG. 10
Procedure: Analysis of relative proportions of live, apoptotic and dead Jurkat cells challenged with 2×10^−7M, 5×10^−7M and 10×10^−7M staurosporine for 40 hours.

Jurkat cells [2] = test: FACS analysis of Jurkat cells induced to undergo Programmed Cell Death, live-stained with antibody:fluorophore conjugate; type: cell-based
Procedure: FIG. 6. Scatter plots from FACS analysis of Jurkat cells treated with the cytotoxin staurosporine (5×10^-7M) for 40 hours to induce Programmed Cell Death including apoptosis and finally cell death (necrosis). The populations of live, apoptotic and dead cells were live-stained with 1 μg/mL MAb2C4:AF568 and/or annexin V:AF488 and the fluorescence intensity (FI) of each shown on the ordinate and abscissa respectively. A: Cell populations stained with MAb2C4:AF568 alone; B: Cell populations stained with MAb2C4:AF568 plus annexin V:AF488; C: Cell populations stained with annexin V:AF488 alone; D: Cell populations stained with MAbFLAG:AF568 plus annexin V:AF488; E: No additions.
FIG. 7. Histograms from FACS analysis of Jurkat cells induced to undergo Programmed Cell Death [PCD] (as for FIG. 6). Shown are overlaid curves representative of live, apoptotic and necrotic (dead) cell populations [A, B & C]. In D these curves are aligned for ease of comparison.
FIG. 8. Overlaid scatter plots showing increasing FI of apoptotic and dead Jurkat populations stained with MAb2C4:AF568 compared to the MAbFLAG:AF568 isotype control.
FIG. 9. Scatter plots showing FI with MAb2C4:AF568 (abscissa) and/or Sytox Red (ordinate). A: Sytox Red alone; B: Increased FI of apoptotic, transition and dead (necrotic) cell populations stained with MAb2C4:AF568; C: Overlaid dot plots of A & B.
MAb2C4 is a mouse anti-human CTR antibody (IgG1) that binds an extracellular epitope and has been conjugated with AlexaFluor 568 (MAb2C4:AF568). […] MAb2C4:AF568 was validated using cell lines expressing human calcitonin receptor (hCTR).
MAbFLAG:AF568 is an IgG1 isotype control. This conjugate was validated using a stable transfectant HEK293 cell line that expresses the PA receptor tagged with a FLAG epitope sequence. The FLAG epitope is positioned on the cell surface. Annexin V:AF488 binds the plasma membrane of dying (apoptotic) and dead (necrotic) cells.

Row | Molecule | proportion of live cells (Jurkat cells [1]) | proportion of apoptotic and dead cell populations (Jurkat cells [1]; Sytox Red and MAb2C4:AF568 staining) | binding to apoptotic and dead cells (Jurkat cells [2]; Example 5 summary statement) | FI (red channel) of apoptotic and dead cell populations, histograms (Jurkat cells [2]; Jurkat cells induced to undergo PCD as for FIG. 6, compared to MAbFLAG:AF568 isotype control, FIG. 7) | fluorescence intensity (FI), scatter plots (Jurkat cells [2]; Jurkat cells, staurosporine 5×10^-7M for 40 hours, live-stained 1 μg/mL, with or without annexin V:AF488, FIG. 6) | FI of apoptotic and dead Jurkat populations, overlaid scatter plots (Jurkat cells [2]; compared to MAbFLAG:AF568 isotype control, FIG. 8) | FI of apoptotic, transition and dead (necrotic) cell populations (Jurkat cells [2]; scatter plots with Sytox Red on the ordinate, FIG. 9)
1 | CN[C@@H]1C[C@H]2O[C@@](C)([C@@H]1OC)n1c3ccccc3c3c4c(c5c6ccccc6n2c5c31)C(=O)NC4 [staurosporine] | decreases with increasing concentrations | increases |  |  |  |  | 
2 | MAb2C4:AF568: mouse anti-human CTR antibody (IgG1) that binds an extracellular epitope, conjugated with AlexaFluor 568 (conjugate) VH: QVHLQQSGAELARPGASVRLSCEASGYTFTKYWMQWIKQRPGQGLEWIGAIYPGDGDSRYTPKFKGKATLTADKSSGTAYIQLSSLASEDSAVYYCARGDGTYWGQGTLVTVSA VL: DIQMTQSPASLSASVGETVTITCRASENIYSYLAWYQQKQGKSPQLLVYKAKTLEEGVPSRFSGSGSGTQFSLKINSLQPEDFGSYYCQHHYGTPRTFGGGTKLEIK |  |  | binds apoptotic cells and is accumulated into dead cells | increase in FI | increased FI | increasing FI | Increased FI
